From US20130045191A1 (IMMATICS BIOTECHNOLOGIES, published 2013) come the findings set out here.

The target in the assay is T1, HLA A*024 (human).
T1 construct: also called HLA A*024 alleles; HLA-A*24
In words: HLA immunoprecipitation from tumour tissue, LC-MS (Example 1).

Regarding LYQILQGIVF [CDC2-001], the binding result was “binds”.
